From PMC12748774 (Nature Communications, 2025)

What was measured:
[1] = molecular target: T1, ZIKV CC_FLE sE (G5C/G102C), disulfide-linked dimer (Zika virus (Brazilian Zika SPH2015 …)); experiment: cryo-EM structure; settings: both partners purified
T1 construct: source: Drosophila Schneider S2 cells, purified (His-tag column, SEC)

[2] = molecular target: ZIKV WT sE (recombinant soluble ectodomain of Zika virus envelope E protein, wild type) (Zika virus, Brazilian strain SPH2015 …, UniProt A0A0U3FSM8); experiment: BLI; settings: both partners purified

B1: SMZAb2 Fab (Fab, V domains shown)
VH: EVQLVQSGAEVKKPGSSVKVSCKAPGGTFSSYAMSWVRQAPGQGPEWVGGIVPVYGTSRYAQKFQGRGTITADESTSTVYLELSSLRSEDTALYYCARVRYYGSGTYYGGDAFDFWGQGTMVTVSS
VL: QTVVTQEPSFSVSPGGTVTLTCGLTSDSVSIHLYPSWYQQTPGQAPRALIYNTNTRSSGVPDRFSGSILGNKAALTITGAQADDESVYFCVVYMGSGIWVFGGGTKLTVL
notes: also called Fabs; source: 293F cells, co-transfected, purified (cOmplete His-Tag Purification Resin)
stoichiometry N [1]: 2

B2: OZ-D4_GL (germline-reverted OZ-D4, IgG1) (antibody, V domains shown)
VH: QVQLQESGPGLVKPSETLSLTCTVSGGSISSYYWSWIRQPPGKGLEWIGYIYYSGSTNYNPSLKSRVTISVDTSKNQFSLKLSSVTAADTAVYYCARYSSGWSFSFDIWGQGTRVTVSS
VL: QSALTQPASVSGSPGQSITISCTGTSSDVGSYNLVSWYQQHPGKAPKLMIYEGSKRPSGVSNRFSGSKSGNTASLTISGLQAEDEADYYCCSYAGSSTLVFGGGTKLTVL
binding result [2]: no binding (tested: 250 nM)
